One block for each binder: values may come before it.
Tests used:
[1] = target: T1, DDX53 peptide RIFGNREMKAKAKAA (human); test: peptide microarray epitope mapping (binding stretch)
T1 peptide: RIFGNREMKAKAKAA

[2] = target: T2, DDX53 peptide EAKVRIFGNREMKAK (human); test: as above
T2 peptide: EAKVRIFGNREMKAK

[3] = target: T3, DDX53 peptide HVYNYDFPRNIDVYV (human); test: as above
T3 peptide: HVYNYDFPRNIDVYV

[4] = target: T4, DDX53 peptide KVRIFGNREMKAKAK (human); test: as above
T4 peptide: KVRIFGNREMKAKAK

[5] = target: T5, DDX53 peptide LKSGEKRLIPKPTCR (human); test: as above
T5 peptide: LKSGEKRLIPKPTCR

[6] = target: T6, DDX53 peptide GLDLNDVTHVYNYDF (human); test: as above
T6 peptide: GLDLNDVTHVYNYDF

[7] = target: T7, DDX53 peptide SRGLDLNDVTHVYNY (human); test: as above
T7 peptide: SRGLDLNDVTHVYNY

[8] = target: T8, DDX53 peptide SGEKRLIPKPTCRFK (human); test: as above
T8 peptide: SGEKRLIPKPTCRFK

[9] = target: T9, DEAD-box helicase 53 (human, UniProt Q86TM3 1-631); test: custom ELISA
T9 construct: Also the protein of the custom ELISA; also called DDX53; CAGE

[10] = target: T10, KIFC3 peptide EYTITVSAAEIYNEV (human); test: peptide microarray epitope mapping (binding stretch)
T10 peptide: EYTITVSAAEIYNEV

[11] = target: T11, KIFC3 peptide SWSSQEHLEWEPACQ (human); test: as above
T11 peptide: SWSSQEHLEWEPACQ

[12] = target: T12, KIFC3 peptide AELGSWSSQEHLEWE (human); test: as above
T12 peptide: AELGSWSSQEHLEWE

[13] = target: T13, KIFC3 peptide ASDWEYTITVSAAEI (human); test: as above
T13 peptide: ASDWEYTITVSAAEI

[14] = target: T14, KIFC3 peptide LGSWSSQEHLEWEPA (human); test: as above
T14 peptide: LGSWSSQEHLEWEPA

[15] = target: T15, KIFC3 peptide DWEYTITVSAAEIYN (human); test: as above
T15 peptide: DWEYTITVSAAEIYN

[16] = target: T16, aminoacylase 3 (human, UniProt Q96HD9 1-319); test: custom ELISA
T16 construct: Also the protein of the custom ELISA; also called ACY3
T16 sequence (looked up): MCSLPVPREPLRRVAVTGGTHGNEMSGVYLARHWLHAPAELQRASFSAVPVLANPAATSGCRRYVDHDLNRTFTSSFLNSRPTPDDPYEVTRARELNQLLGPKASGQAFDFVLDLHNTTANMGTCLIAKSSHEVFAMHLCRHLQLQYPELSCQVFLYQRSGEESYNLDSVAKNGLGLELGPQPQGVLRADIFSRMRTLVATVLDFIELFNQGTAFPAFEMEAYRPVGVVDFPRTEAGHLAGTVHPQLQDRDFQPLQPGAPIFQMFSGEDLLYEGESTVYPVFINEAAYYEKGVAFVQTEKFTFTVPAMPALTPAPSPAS

[17] = target: T17, AKR1A1 peptide TLADLQLEYLDLYLM (human); test: peptide microarray epitope mapping (binding stretch)
T17 peptide: TLADLQLEYLDLYLM

[18] = target: T18, AKR1A1 peptide LEYLDLYLMHWPYAF (human); test: as above
T18 peptide: LEYLDLYLMHWPYAF

[19] = target: T19, AKR1A1 peptide VPMLTVDGKRVPRDA (human); test: as above
T19 peptide: VPMLTVDGKRVPRDA

[20] = target: T20, AKR1A1 peptide WRYIVPMLTVDGKRV (human); test: as above
T20 peptide: WRYIVPMLTVDGKRV

[21] = target: T21, AKR1A1 peptide ADLQLEYLDLYLMHW (human); test: as above
T21 peptide: ADLQLEYLDLYLMHW

[22] = target: T22, AKR1A1 peptide TVDGKRVPRDAGHPL (human); test: as above
T22 peptide: TVDGKRVPRDAGHPL

[23] = target: T23, AKR1A1 peptide YIVPMLTVDGKRVPR (human); test: as above
T23 peptide: YIVPMLTVDGKRVPR

[24] = target: T24, AKR1A1 peptide MLTVDGKRVPRDAGH (human); test: as above
T24 peptide: MLTVDGKRVPRDAGH

[25] = target: T25, AKR1A1 peptide RKTLADLQLEYLDLY (human); test: as above
T25 peptide: RKTLADLQLEYLDLY

[26] = target: T26, AKR1A1 peptide LQLEYLDLYLMHWPY (human); test: as above
T26 peptide: LQLEYLDLYLMHWPY

[27] = target: T27, aldo-keto reductase family 1 member A1 (human, UniProt P14550 1-325); test: custom ELISA
T27 construct: Also the protein of the custom ELISA; also called AKR1A1
T27 sequence (looked up): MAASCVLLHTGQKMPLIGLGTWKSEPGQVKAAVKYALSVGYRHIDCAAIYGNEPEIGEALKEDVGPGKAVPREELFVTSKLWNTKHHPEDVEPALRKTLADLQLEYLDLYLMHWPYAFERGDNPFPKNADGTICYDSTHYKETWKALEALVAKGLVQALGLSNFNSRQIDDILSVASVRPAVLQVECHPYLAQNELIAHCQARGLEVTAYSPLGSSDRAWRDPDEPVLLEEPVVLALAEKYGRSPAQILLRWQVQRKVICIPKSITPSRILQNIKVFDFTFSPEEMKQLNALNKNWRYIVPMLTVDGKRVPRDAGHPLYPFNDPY

[28] = target: T28, phosphoribosylglycinamide formyltransferase, phosphoribosylglycinamide synthetase, … (human, UniProt P22102-2 1-433); test: custom ELISA
T28 construct: Also the protein of the custom ELISA; also called GART
T28 sequence (looked up): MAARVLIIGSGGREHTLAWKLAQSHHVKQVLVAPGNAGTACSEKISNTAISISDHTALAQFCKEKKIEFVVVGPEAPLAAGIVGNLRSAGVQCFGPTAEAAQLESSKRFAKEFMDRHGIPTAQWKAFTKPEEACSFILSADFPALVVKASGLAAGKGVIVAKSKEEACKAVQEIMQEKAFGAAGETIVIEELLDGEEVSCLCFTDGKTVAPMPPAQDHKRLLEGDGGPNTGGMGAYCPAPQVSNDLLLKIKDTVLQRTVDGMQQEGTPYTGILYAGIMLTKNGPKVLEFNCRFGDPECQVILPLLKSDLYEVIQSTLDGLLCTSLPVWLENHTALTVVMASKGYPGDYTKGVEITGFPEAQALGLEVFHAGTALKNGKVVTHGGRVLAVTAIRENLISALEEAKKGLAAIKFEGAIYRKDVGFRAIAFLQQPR

[29] = target: T29, microtubule associated scaffold protein 2 (human, UniProt Q5JR59-3 1-348); test: custom ELISA
T29 construct: Also the protein of the custom ELISA; also called MTUS2; microtubule associated tumor suppressor candidate 2
T29 sequence (looked up): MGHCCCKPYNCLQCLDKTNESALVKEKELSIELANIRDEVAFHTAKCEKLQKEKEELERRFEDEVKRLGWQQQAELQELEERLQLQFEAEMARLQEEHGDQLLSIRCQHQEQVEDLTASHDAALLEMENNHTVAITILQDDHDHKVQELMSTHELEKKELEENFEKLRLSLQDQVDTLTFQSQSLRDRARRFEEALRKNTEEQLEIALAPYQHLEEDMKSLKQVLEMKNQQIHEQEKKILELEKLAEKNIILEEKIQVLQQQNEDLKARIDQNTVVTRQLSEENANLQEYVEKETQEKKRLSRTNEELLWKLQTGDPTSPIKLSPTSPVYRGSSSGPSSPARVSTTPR

[30] = target: T30, kinesin family member C3 (human, UniProt Q9BVG8-5 1-687); test: custom ELISA
T30 construct: Also the protein of the custom ELISA; also called KIFC3
T30 sequence (looked up): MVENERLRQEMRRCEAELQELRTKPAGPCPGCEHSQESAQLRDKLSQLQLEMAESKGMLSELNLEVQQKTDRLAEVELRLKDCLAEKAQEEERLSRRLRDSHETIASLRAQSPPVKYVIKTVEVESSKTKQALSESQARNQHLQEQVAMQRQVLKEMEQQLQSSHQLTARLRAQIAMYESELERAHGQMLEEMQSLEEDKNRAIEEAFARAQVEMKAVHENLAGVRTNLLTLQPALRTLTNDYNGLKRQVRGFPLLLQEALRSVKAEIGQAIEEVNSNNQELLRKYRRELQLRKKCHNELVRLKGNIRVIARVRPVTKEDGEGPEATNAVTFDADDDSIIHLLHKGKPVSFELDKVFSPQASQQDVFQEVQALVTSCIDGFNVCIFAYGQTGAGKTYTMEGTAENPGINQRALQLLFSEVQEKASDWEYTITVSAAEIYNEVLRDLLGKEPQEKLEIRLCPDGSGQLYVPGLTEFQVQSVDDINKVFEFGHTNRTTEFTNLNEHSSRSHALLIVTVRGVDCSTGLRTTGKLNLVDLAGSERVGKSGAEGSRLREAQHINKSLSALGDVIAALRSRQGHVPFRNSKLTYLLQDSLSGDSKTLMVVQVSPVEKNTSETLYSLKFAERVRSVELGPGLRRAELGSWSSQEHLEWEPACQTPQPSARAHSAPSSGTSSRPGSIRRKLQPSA

[31] = target: T31, peptidylprolyl isomerase like 1 (human, UniProt Q9Y3C6 1-166); test: custom ELISA
T31 construct: Also the protein of the custom ELISA; also called PPIL1
T31 sequence (looked up): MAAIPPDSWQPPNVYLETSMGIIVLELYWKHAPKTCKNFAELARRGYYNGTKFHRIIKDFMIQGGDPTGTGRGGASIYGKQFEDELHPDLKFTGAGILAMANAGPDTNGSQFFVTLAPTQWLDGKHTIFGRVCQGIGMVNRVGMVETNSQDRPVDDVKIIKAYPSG

[32] = target: T32, magnesium dependent phosphatase 1 (human, UniProt Q86V88 1-176); test: custom ELISA
T32 construct: Also the protein of the custom ELISA; also called MDP1
T32 sequence (Q86V88 whole entry): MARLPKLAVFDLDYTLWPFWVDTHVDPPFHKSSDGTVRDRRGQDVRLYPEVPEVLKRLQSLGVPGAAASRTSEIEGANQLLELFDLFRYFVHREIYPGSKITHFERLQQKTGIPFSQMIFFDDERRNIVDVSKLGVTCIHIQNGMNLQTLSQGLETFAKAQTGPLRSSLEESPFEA

T9 sequence (Q86TM3 whole entry): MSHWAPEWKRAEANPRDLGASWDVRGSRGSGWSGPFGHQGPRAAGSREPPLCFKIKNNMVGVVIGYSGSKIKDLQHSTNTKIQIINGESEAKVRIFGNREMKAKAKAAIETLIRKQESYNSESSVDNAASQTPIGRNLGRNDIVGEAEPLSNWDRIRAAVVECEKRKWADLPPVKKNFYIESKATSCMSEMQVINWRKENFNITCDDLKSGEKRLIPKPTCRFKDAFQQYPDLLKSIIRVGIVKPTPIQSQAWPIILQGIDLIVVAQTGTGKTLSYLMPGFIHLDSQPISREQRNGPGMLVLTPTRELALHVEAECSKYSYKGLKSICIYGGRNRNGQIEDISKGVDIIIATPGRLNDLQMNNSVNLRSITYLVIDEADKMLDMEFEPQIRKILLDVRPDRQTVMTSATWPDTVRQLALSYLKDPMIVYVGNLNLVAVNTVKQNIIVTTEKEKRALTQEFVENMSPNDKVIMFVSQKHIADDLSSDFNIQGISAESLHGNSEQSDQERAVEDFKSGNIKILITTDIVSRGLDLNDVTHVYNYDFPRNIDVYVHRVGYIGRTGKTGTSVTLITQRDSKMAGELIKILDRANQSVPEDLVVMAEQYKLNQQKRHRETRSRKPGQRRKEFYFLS

- binding result [1]: binds
- binding result [2]: binds
- binding result [3]: binds
- binding result [4]: binds
- binding result [5]: binds
- binding result [6]: binds
- binding result [7]: binds
- binding result [8]: binds
- binding result [9]: binds
B1: recombinant antibody P1-B4 (antibody, V domains shown)
VH: QVQLVESGPEVKKPGASVKVSCKASGYTFTSYGISWVRQAPGQGLEWMGWISVYKSDTNDAQKFQGRVTMTTDTSTSTAYMELRSLRSDDTAVYYCARSRGIVGSTLDDNWGQGTLVTVSS
VL: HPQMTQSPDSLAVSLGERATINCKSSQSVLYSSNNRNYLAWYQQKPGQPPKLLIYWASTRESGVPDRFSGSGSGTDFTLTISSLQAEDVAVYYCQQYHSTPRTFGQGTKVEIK
notes: also called clone P1-B4

- binding result [10]: binds
- binding result [11]: binds
- binding result [12]: binds
- binding result [13]: binds
- binding result [14]: binds
- binding result [15]: binds
- binding result [16]: binds
B2: recombinant antibody P1-F6 (antibody, V domains shown)
VH: QVPLKESGPALVKPTRTLTLTCTFSGFSLSTNGVSVGWIRQPPGKALDWLALIYWNDDKRYSPSLKNRLTITKDTSKNLVVLRMTNMDPVDTATYYCAHRPIASSRDGFDYWGQGTLVTVSS
VL: DIQMTQFPSTLSASVGETVTISCRASQSVSGWLAWYQQKPGKAPKLLMYKASALENGVPSRFSGSGSGTEFTLTISSLQPDDFATYYCQQYNGFPFTFGPGTKVDIN
notes: also called clone P1-F6

- binding result [17]: binds
- binding result [18]: binds
- binding result [19]: binds
- binding result [20]: binds
- binding result [21]: binds
- binding result [22]: binds
- binding result [23]: binds
- binding result [24]: binds
- binding result [25]: binds
- binding result [26]: binds
- binding result [27]: binds
- binding result [9]: no binding
- binding result [28]: no binding
- binding result [29]: no binding
- binding result [30]: no binding
- binding result [31]: no binding
- binding result [32]: no binding
- binding result [16]: no binding
B3: recombinant antibody P3-F1 (antibody, V domains shown)
VH: QVQLVESGPTLVKPTQTLTVTCTFSGFSLNTRAVGVGWIRQPPGGALEWLALVYWDDDKRYSPSLKNRLTITKDTSRNQVVLTLTNVAPVDTGTYYCSHHRLTDGRLRWGQGTLVTVSS
VL: QVQLVQSPGTLSLSPGERATLSCRASQSITSSYLAWYQQKFGQAPRLLIYRASNRATGIPDRFSGSGSGTDFTLTISSLESEDFAVYYCQQYDTSPWTFGQGTKVEIK
notes: also called clone P3-F1

From EP4613775A1 (Eberhard Karls Universität Tübingen Medizinische Fakultät, dated 2025)
